{
  "source": "paper PMC6180428",
  "target": "NagA-GFP-His6 fusion protein (N-acetylglucosamine-6-phosphate deacetylase from Mycobacterium smegmatis with C-terminal TEV-cleavable GFP-His6) (Mycobacterium smegmatis)",
  "experiment": "SEC; Superdex 200 16/60, 20 mM Bis-Tris, 300 mM NaCl, 10% glycerol pH 8.0; oligomeric state from the elution profile",
  "data": [
    {"substance": "NagA-GFP-His6 fusion protein (N-acetylglucosamine-6-phosphate deacetylase from Mycobacterium smegmatis with C-terminal TEV-cleavable GFP-His6) (enzyme)", "values": [
      {"measurement": "stoichiometry N", "value": 2}
    ]}
  ]
}
